For test [1], the target named is T1, Fc portion of human IgG1 (Ig control) (human, UniProt P01857-1 99-330 = IgG part, limits assumed).
T1 construct: domain: Fc; Control protein made in Drosophila S2 cells; also called control Ig; human IgG1 Fc tag
In words: FACS on 3T3 transfectants, PE anti-human IgG Fc. The method, then: (§1) Antibodies and flow cytometry. Cells were incubated with Fc blocking reagents and then stained with combinations of the following anti-human antibodies: CD152-PE, CD28-PE, B7-1-PE, B7-2-PE, PD-1-PE, PD-L1-PE, PD-L2-PE, ICOS-PE, ICOSL-PE, B7H4-PE, CD14-FITC, CD19-FITC, CD8a-Percp-Cy5.5, CD4-APC, CD83-APC, streptavidin and isotype controls (eBioscience). Biotinylated anti-hB7-H3 was purchased from R&D. For receptor binding, cells were incubated with HHLA2-Ig, B7x-Ig, or control Ig for 45 min on ice and then stained with PE-anti-human IgG Fc (Jackson Immunoresearch). Samples were acquired on a FACSCalibur, LSRII or LSRII yellow (BD Biosciences), and analyzed with FlowJo (Treestar).

Test [2] concerns the target T2, B7x-Ig (human, UniProt Q7Z7D3 25-259; P01857 99-330 = IgG part, limits assumed).
T2 construct: extracellular domain;domain: Fc; Made in Drosophila S2 cells; Used as a control fusion protein; also called B7x-Ig fusion protein
Put plainly: FACS on 3T3 transfectants, PE anti-human IgG Fc. The method, then: as §1

Test [3] concerns the target T2, B7x-Ig. Put plainly: FACS on 3T3 or CT26 transfectants, PE anti-human IgG Fc. The method, then: as §1

T2 sequence (Q7Z7D3 other isoform, or with tags, fused parts or gaps limits assumed): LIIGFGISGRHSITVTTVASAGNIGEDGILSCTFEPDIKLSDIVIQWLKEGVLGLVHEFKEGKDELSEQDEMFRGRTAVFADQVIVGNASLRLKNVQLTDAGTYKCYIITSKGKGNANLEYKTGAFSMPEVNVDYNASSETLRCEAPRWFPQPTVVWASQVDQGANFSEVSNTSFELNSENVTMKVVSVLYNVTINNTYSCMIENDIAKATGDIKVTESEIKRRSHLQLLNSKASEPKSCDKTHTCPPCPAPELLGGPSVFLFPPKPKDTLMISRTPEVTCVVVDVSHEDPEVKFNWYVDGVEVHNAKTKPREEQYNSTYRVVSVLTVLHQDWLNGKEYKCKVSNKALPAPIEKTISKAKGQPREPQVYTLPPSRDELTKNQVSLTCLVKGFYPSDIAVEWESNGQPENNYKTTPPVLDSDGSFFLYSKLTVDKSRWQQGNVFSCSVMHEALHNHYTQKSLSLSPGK

B1: human ICOS on transfected cells (receptor, UniProt Q9Y6W8 21-199, looked up)
chain: EINGSANYEMFIFHNGGVQILCKYPDIVQQFKMQLLKGGQILCDLTKTKGSGNTVSIKSLKFCHSQLSNNSVSFFLYNLDHSHANYYFCNLSIFDPPPFKVTLTGGYLHIYESQLCCQLKFWLPIGCAAFVVVCILGCILICWLTKKKYSSSVHDPNGEYMFMRAVNTAKKSRLTDVTL
notes: whole, on cells
As to B1, the binding result (in test [1]; in the test with B7x-Ig [2]) was “no binding” in each case.

B2: human B7h on transfected cells (ligand, UniProt O75144 19-302, looked up)
chain: DTQEKEVRAMVGSDVELSCACPEGSRFDLNDVYVYWQTSESKTVVTYHIPQNSSLENVDSRYRNRALMSPAGMLRGDFSLRLFNVTPQDEQKFHCLVLSQSLGFQEVLSVEVTLHVAANFSVPVVSAPHSPSQDELTFTCTSINGYPRPNVYWINKTDNSLLDQALQNDTVFLNMRGLYDVVSVLRIARTPSVNIGCCIENVLLQQNLTVGSQTGNDIGERDKITENPVSTGEKNAATWSILAVLCLLVVVAVAIGWVCRDRCLQHSYAGAWAVSPETELTGHV
notes: whole, on cells; also called ICOS-L
Take B2: in the test with B7x-Ig [3], the binding result is “no binding”.

B3: human B7-1 on transfected cells (ligand, UniProt P33681 35-288, looked up)
chain: VIHVTKEVKEVATLSCGHNVSVEELAQTRIYWQKEKKMVLTMMSGDMNIWPEYKNRTIFDITNNLSIVILALRPSDEGTYECVVLKYEKDAFKREHLAEVTLSVKADFPTPSISDFEIPTSNIRRIICSTSGGFPEPHLSWLENGEELNAINTTVSQDPETELYAVSSKLDFNMTTNHSFMCLIKYGHLRVNQTFNWNTTKQEHFPDNLLPSWAITLISVNGIFVICCLTYCFAPRCRERRRNERLRRESVRPV
notes: whole, on cells; also called CD80
On to B3, for which, in the test with B7x-Ig [3], the binding result was “no binding”.

B4: human B7-2 on transfected cells (ligand, UniProt P42081 24-329, looked up)
chain: APLKIQAYFNETADLPCQFANSQNQSLSELVVFWQDQENLVLNEVYLGKEKFDSVHSKYMGRTSFDSDSWTLRLHNLQIKDKGLYQCIIHHKKPTGMIRIHQMNSELSVLANFSQPEIVPISNITENVYINLTCSSIHGYPEPKKMSVLLRTKNSTIEYDGVMQKSQDNVTELYDVSISLSVSFPDVTSNMTIFCILETDKTRLLSSPFSIELEDPQPPPDHIPWITAVLPTVIICVMVFCLILWKWKKKKRPRNSYKCGTNTMEREESEQTKKREKIHIPERSDEAQRVFKSSKTSSCDKSDTCF
notes: whole, on cells; also called CD86
Regarding B4, the binding result with B7x-Ig [3] is listed as “no binding”.

B5: human PD-L2 on transfected cells (ligand, UniProt Q9BQ51 20-273, looked up)
chain: LFTVTVPKELYIIEHGSNVTLECNFDTGSHVNLGAITASLQKVENDTSPHRERATLLEEQLPLGKASFHIPQVQVRDEGQYQCIIIYGVAWDYKYLTLKVKASYRKINTHILKVPETDEVELTCQATGYPLAEVSWPNVSVPANTSHSRTPEGLYQVTSVLRLKPPPGRNFSCVFWNTHVRELTLASIDLQSQMEPRTHPTWLLHIFIPFCIIAFIFIATVIALRKQLCQKLYSSKDTTKRPVTTTKREVNSAI
notes: whole, on cells; also called B7-DC
Consider B5, for which, in the test with B7x-Ig [3], the binding result is “no binding”.

The record behind these values is patent US20160002337A1 (ALBERT EINSTEIN COLLEGE OF MEDICINE, published 2016).
